In article doi:10.1101/2021.02.02.429361 (bioRxiv, 2021):
Blank lines part the entries; values can stand above or below the molecule they belong to.

Legend:
[1] = target: T1, ABI5 (His-ABI5) (Arabidopsis thaliana) (UniProt Q9SJN0); experiment: EMSA
T1 sequence: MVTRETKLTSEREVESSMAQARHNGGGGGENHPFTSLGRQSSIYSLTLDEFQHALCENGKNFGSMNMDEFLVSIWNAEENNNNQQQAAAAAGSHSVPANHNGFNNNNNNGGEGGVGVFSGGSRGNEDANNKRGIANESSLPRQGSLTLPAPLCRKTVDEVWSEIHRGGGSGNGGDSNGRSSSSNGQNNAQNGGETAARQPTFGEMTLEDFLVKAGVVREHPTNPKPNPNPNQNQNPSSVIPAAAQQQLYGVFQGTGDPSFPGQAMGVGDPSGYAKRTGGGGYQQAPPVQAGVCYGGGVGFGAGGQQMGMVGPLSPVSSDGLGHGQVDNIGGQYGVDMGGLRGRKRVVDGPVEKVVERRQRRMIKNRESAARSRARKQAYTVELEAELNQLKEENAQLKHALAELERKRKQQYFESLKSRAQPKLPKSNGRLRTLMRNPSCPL

His-AtABI5 = target: T2, His-AtABI5 (Arabidopsis thaliana, UniProt Q9SJN0 1-442); experiment: pull-down
T2 sequence (looked up): T1 sequence

Molecule: AGTGTTATATAATTTTACGTAACGTAAAACAATACAAAATTTTAATTCCTGAACGAATAAAACGAGTATATTAATTAATTTATTGATCGTATTAAAACGAATATGATCCAATTAAGATTACAATTACTAAAATCCCCACACTATTATTGTCATTATTTAACTATGGCAGATAGATAGATACAGAACCGTAAAGGACGTTAGGAAGAGGAAGAACGTTGACGAAGTCAAC (double strand) [AtMPK3 promoter fragment (-402 to -256)]
- binding [1]: binds

- binding result (His-AtABI5): binds
B1: GST-AtMPK3 (enzyme, Arabidopsis thaliana, UniProt Q39023 1-370, looked up)
chain: MNTGGGQYTDFPAVETHGGQFISYDIFGSLFEITSKYRPPIIPIGRGAYGIVCSVLDTETNELVAMKKIANAFDNHMDAKRTLREIKLLRHLDHENIIAIRDVVPPPLRRQFSDVYISTELMDTDLHQIIRSNQSLSEEHCQYFLYQLLRGLKYIHSANIIHRDLKPSNLLLNANCDLKICDFGLARPTSENDFMTEYVVTRWYRAPELLLNSSDYTAAIDVWSVGCIFMELMNRKPLFPGKDHVHQMRLLTELLGTPTESDLGFTHNEDAKRYIRQLPNFPRQPLAKLFSHVNPMAIDLVDRMLTFDPNRRITVEQALNHQYLAKLHDPNDEPICQKPFSFEFEQQPLDEEQIKEMIYQEAIALNPTYG
